The target in experiment [1] is VAR2CSA ectodomain (residue 1-2630) of Plasmodium falciparum 3D7 (Plasmodium falciparum 3D7). The experiment can be described thus: SEC. (In gel filtration, larger molecules generally elute earlier.)
Experiment [2] has the same target. Nature of the experiment: cross-linking.

The term stoichiometry N denotes the number of molecules, sites or subunits per partner or assembly.

For “VAR2CSA ectodomain (residue 1-2630) of Plasmodium falciparum 3D7 (domain or fragment)”, the stoichiometry N in experiment [1] and in experiment [2] was 2 each time.

The values above are taken from doi:10.1101/2021.07.06.451098.
